Experimental findings from FireProtDB (doi:10.1021/bi049320b) are described below.

B1: Barstar, P11540 (parent)
chain: MKKAVINGEQIRSISDLHQTLKKELALPEYYGENLDALWDCLTGWVEYPLVLEWRQFEQSKQLTENGAESVLQVFREAKAEGCDITIILS

Variants of B1 are the subject of this series. The conditions noted are these: Bacillus amyloliquefaciens, pH 8, 25 °C, Urea, Fluorescence, Tris-HCl 30 mM, structure 1BTA, whole UniProt chain shown.

In the case of MKKAVINGEQIRSISDLHQTLKKELALPEYYGENLDALWDCLTGWVEYPLVLEWRQFEQSKQLTENGAESVLQVFREAQAEGCDITIILS [K79Q], the “ddG of mutation (higher = less stable)” value was -0.4 kcal/mol, the denaturant m value was determined as 1.14 kcal/mol/M and the unfolding free energy is 5.2 kcal/mol. Further, under “KCl 0.5 M”, the “ddG of mutation (higher = less stable)” value was -0.3 kcal/mol, the denaturant m value came out at 1.14 kcal/mol/M and the unfolding free energy was determined as 6.1 kcal/mol. In addition, under “KCl 1 M”, the “ddG of mutation (higher = less stable)” value was -0.3 kcal/mol, the denaturant m value came to 1.14 kcal/mol/M and the unfolding free energy amounted to 7.2 kcal/mol.
MKKAVINGEQIRSISDLHQTLKKELALPEYYGENLDALWDCLTGWVEYPLVLEWRQFEQSKQLTENGAESVLQVFREAAAEGCDITIILS [K79A]: under “KCl 0.5 M”, the “ddG of mutation (higher = less stable)” value is -0.2 kcal/mol, the denaturant m value was determined as 1.18 kcal/mol/M and the unfolding free energy amounted to 6 kcal/mol. For the setting “KCl 1 M”, the “ddG of mutation (higher = less stable)” value was -0.1 kcal/mol, the denaturant m value came to 1.16 kcal/mol/M and the unfolding free energy is 7 kcal/mol.
Turning to MKKAVINGEQIRSISDLHQTLKKELALPEYYGENLDALWDCLTGWVEYPLVLEWRQFKQSKQLTENGAESVLQVFREAKAEGCDITIILS [E58K], the “ddG of mutation (higher = less stable)” value was found to be 0.4 kcal/mol, the denaturant m value is 1.25 kcal/mol/M and the unfolding free energy was 4.4 kcal/mol. Moreover, where the note is “KCl 0.5 M”, the “ddG of mutation (higher = less stable)” value came to 0.9 kcal/mol, the denaturant m value is 1.14 kcal/mol/M and the unfolding free energy is 4.9 kcal/mol. Further, under “KCl 1.0 M”, the “ddG of mutation (higher = less stable)” value came out at 0.9 kcal/mol, the denaturant m value was determined as 1.16 kcal/mol/M and the unfolding free energy came out at 6 kcal/mol.
Regarding MKKAVINGEQIRSISDLHQTLKKELALPEYYGENLDALWDCLTGWVEYPLVLEWRQFEQSEQLTENGAESVLQVFREAKAEGCDITIILS [K61E], the “ddG of mutation (higher = less stable)” value worked out at 0.6 kcal/mol, the denaturant m value worked out at 1.44 kcal/mol/M and the unfolding free energy was found to be 4.2 kcal/mol. Moreover, where the note is “KCl 0.5 M”, the “ddG of mutation (higher = less stable)” value was found to be 1.3 kcal/mol, the denaturant m value stood at 1.19 kcal/mol/M and the unfolding free energy was found to be 4.5 kcal/mol. Besides, where the note is “KCl 1.0 M”, the “ddG of mutation (higher = less stable)” value amounted to 1.4 kcal/mol, the denaturant m value came to 1.13 kcal/mol/M and the unfolding free energy came out at 5.5 kcal/mol.
Consider MKKAVINGEQIRSISDLHQTLKKELALPEYYGENLDALWDCLTGWVEYPLVLEWRQFEQSLQLTENGAESVLQVFREAKAEGCDITIILS [K61L], for which the “ddG of mutation (higher = less stable)” value is -1 kcal/mol, the denaturant m value turned out to be 1.3 kcal/mol/M and the unfolding free energy was found to be 5.8 kcal/mol. In addition, for the setting “KCl 0.5 M”, the “ddG of mutation (higher = less stable)” value was -0.4 kcal/mol, the denaturant m value was determined as 1.17 kcal/mol/M and the unfolding free energy is 6.2 kcal/mol. Moreover, under “KCl 1.0 M”, the “ddG of mutation (higher = less stable)” value is -0.4 kcal/mol, the denaturant m value came to 1.16 kcal/mol/M and the unfolding free energy was 7.3 kcal/mol.
Take MKKAVINGEQIRSISDLHQTLAKELALPEYYGENLDALWDCLTGWVEYPLVLEWRQFEQSKQLTENGAESVLQVFREAKAEGCDITIILS [K22A]: the “ddG of mutation (higher = less stable)” value worked out at 1.4 kcal/mol, the denaturant m value is 1.02 kcal/mol/M and the unfolding free energy amounted to 3.4 kcal/mol. For the setting “KCl 0.5 M”, the “ddG of mutation (higher = less stable)” value is 0.8 kcal/mol, the denaturant m value is 1.1 kcal/mol/M and the unfolding free energy is 5 kcal/mol. Also, for the setting “KCl 1 M”, the “ddG of mutation (higher = less stable)” value came to 0.8 kcal/mol, the denaturant m value amounted to 1.11 kcal/mol/M and the unfolding free energy is 6.1 kcal/mol.
MKKAVINGEQIRSISDLHQTLQKELALPEYYGENLDALWDCLTGWVEYPLVLEWRQFEQSKQLTENGAESVLQVFREAKAEGCDITIILS [K22Q]: the “ddG of mutation (higher = less stable)” value came to 0.7 kcal/mol, the denaturant m value was determined as 1.32 kcal/mol/M and the unfolding free energy came to 4.1 kcal/mol. Besides, where the note is “KCl 0.5 M”, the “ddG of mutation (higher = less stable)” value was determined as 1.2 kcal/mol, the denaturant m value stood at 1.18 kcal/mol/M and the unfolding free energy amounted to 4.6 kcal/mol. Moreover, under “KCl 1 M”, the “ddG of mutation (higher = less stable)” value was 1.2 kcal/mol, the denaturant m value was 1.12 kcal/mol/M and the unfolding free energy was determined as 5.7 kcal/mol.
On to MKKAVINGEQIRSISDLHQTLKKELALPEYYGENLDALWDCLTGWVEYPLVLEWRQFEQSKQLTENGAESVLQVFQEAKAEGCDITIILS [R76Q], for which, under “KCl 0.5M”, the “ddG of mutation (higher = less stable)” value was 0.4 kcal/mol, the denaturant m value was 1.15 kcal/mol/M and the unfolding free energy turned out to be 5.4 kcal/mol. For the same variant, where the note is “KCl 1 M”, the “ddG of mutation (higher = less stable)” value is 0.4 kcal/mol, the denaturant m value is 1.17 kcal/mol/M and the unfolding free energy came out at 6.5 kcal/mol.
As for MKKAVINGEQIRSISDLHQTLKKELALPEYYGENLDALWDCLTGWVEYPLVLEWRQFEQSKQLTENGAESVLQVFLEAKAEGCDITIILS [R76L], the “ddG of mutation (higher = less stable)” value is -0.7 kcal/mol, the denaturant m value was 1.13 kcal/mol/M and the unfolding free energy was 5.5 kcal/mol. Besides, where the note is “KCl 0.5 M”, the “ddG of mutation (higher = less stable)” value is -0.7 kcal/mol, the denaturant m value came to 1.13 kcal/mol/M and the unfolding free energy amounted to 6.5 kcal/mol. Moreover, under “KCl 1.0 M”, the “ddG of mutation (higher = less stable)” value is -0.7 kcal/mol, the denaturant m value came out at 1.15 kcal/mol/M and the unfolding free energy came out at 7.6 kcal/mol.
Consider MKKAVINGEQIRSISDLHQTLKQELALPEYYGENLDALWDCLTGWVEYPLVLEWRQFEQSKQLTENGAESVLQVFREAKAEGCDITIILS [K23Q], for which the “ddG of mutation (higher = less stable)” value came out at 0.5 kcal/mol, the denaturant m value is 1.22 kcal/mol/M and the unfolding free energy was 4.3 kcal/mol. Further, under “KCl 0.5 M”, the “ddG of mutation (higher = less stable)” value was found to be 1.1 kcal/mol, the denaturant m value was found to be 1.12 kcal/mol/M and the unfolding free energy turned out to be 4.7 kcal/mol. For the same variant, under “KCl 1.0 M”, the “ddG of mutation (higher = less stable)” value amounted to 1.1 kcal/mol, the denaturant m value was 1.14 kcal/mol/M and the unfolding free energy is 5.8 kcal/mol.
